Measurements as given in US9458465B2, “Compositions and methods to modulate cell membrane resealing” (RUTGERS, THE STATE UNIVERSITY OF NEW JERSEY, priority 2007, dated 2016).

Columns and labels:
[1] = test system: Human C38 airway epithelial cells; assay: GFP-MG53 translocation after microelectrode or saponin damage, C38; assay type: cell-based; settings: microelectrode or 0.005% saponin
Source text: (§1) MG53 can translocate to membrane repair sites in airway epithelial cells. Human C38 airway epithelial cells were transfected with GFP-MG53 and then subjected to mechanical membrane damage by microelectrode needle penetration (top) or treatment with 0.005% saponin to permeabilize the membrane (bottom) (FIG. 47). Translocation of GFP-MG53 to the injury site (arrow) was monitored by live cell confocal microscopy.

[2] = test system: Human gastric adenocarcinoma (AGS) cells; assay: GFP-MG53 translocation after microelectrode or saponin damage, AGS; assay type: cell-based; settings: microelectrode or 0.005% saponin
Source text: as §1, with “gastric” for “airway epithelial”, “gastric adenocarcinoma (AGS)” for “C38 airway epithelial”, “45).” for “47).”

[3] = test system: Mouse leukaemic monocyte macrophage (RAW 264.7) cells; assay: GFP-MG53 translocation after microelectrode or saponin damage, RAW 264.7; assay type: cell-based; settings: microelectrode or 0.005% saponin
Source text: as §1, with “immune” for “airway epithelial”, “Mouse leukaemic monocyte macrophage (RAW 264.7)” for “Human C38 airway epithelial”, “49).” for “47).”

Mouse primary astrocytes = assay: GFP-MG53 translocation after microelectrode or saponin damage, astrocytes; assay type: cell-based; settings: microelectrode or 0.005% saponin
Source text: as §1, with “neural” for “airway epithelial”, “Mouse primary astrocytes” for “Human C38 airway epithelial cells”, “46).” for “47).”

[4] = test system: primary cultures of human keratinocytes; assay: GFP-MG53 translocation after microelectrode or saponin damage, keratinocytes; assay type: cell-based; settings: microelectrode or saponin detergent
Source text: (§2) MG53 can patch the plasma membrane in many different human cell types and prevent cell death. To test if exogenous MG53 can recapitulate membrane resealing function in non-muscle cell types, we used either adenovirus or liposome-based transfection methods to express GFP-MG53 in a number of different cell types. In all cell types tested, MG53 performed in a similar fashion as that seen in muscle cells. Here we illustrate these effects in immortalized human cell lines, including HEK293 (not shown) and human embryonic palatal mesenchymal (HEPM) dental cells (FIG. 43), as well as primary cultures of human keratinocytes (FIG. 42). […] The function of MG53 appears to be essential to allow membrane patching and survival of muscle cells following injury.

[5] = test system: C2C12 cells expressing GFP-MG53; assay: Repair of acute membrane damage: translocation to microelectrode injury site; assay type: cell-based, murine; settings: C2C12 cells; acute membrane damage
Experimental: To follow the process of intracellular vesicle translocation associated with repair of acute membrane damage, GFP-MG53 fusion protein was expressed in C2C12 myoblast cells (FIG. 21a). […]
Cell culture—The C2C12 murine myoblast cell line used for all studies was purchased from the American Type Culture Collection (Manassas, Va.). Cells were grown in a humidified environment at 37° C. and 5% CO2 in DMEM medium for C2C12 or Ham's F12 medium for CHO cells supplemented with 10% fetal bovine serum, 100 units/ml penicillin and 100 ug/ml streptomycin. In order to induce myotube differentiation, C2C12 myoblasts were grown to confluence and the medium was switched to DMEM containing 2% horse serum, penicillin (100 U/ml), streptomycin (100 μg/ml). For transient transfections, C2C12 myoblasts or CHO cells were plated at 70% confluence in glass-bottom dishes. After 24 hours, cells were transfected with plasmids described above using GeneJammer reagent (Stratagene). Cells were visualized by live cell confocal imaging at 24-48 hours after transfection or at times indicated for individual experiments. In some experiments, C2C12 myoblasts were allowed to differentiate into myotubes for the indicated time before observation.
Live cell imaging—To monitor intracellular trafficking of GFP-MG53 either CHO or C2C12 cells were cultured in glass-bottom dishes (Bioptechs Inc.) and transfected with the plasmids described above. Fluorescence images (512×512) were captured at 3.18 s/frame using a BioRad 2100 Radiance laser scanning confocal microscope with a 63×1.3NA oil immersion objective.

[6] = test system: human embryonic palatal mesenchymal (HEPM) dental cells; assay: GFP-MG53 translocation after microelectrode or saponin damage, HEPM; assay type: cell-based; settings: microelectrode or saponin detergent
Source text: as §2

mg53−/− myotubes = assay: Membrane repair in transfected mg53−/− myotubes; assay type: cell-based, mice
Source text: The entry of FM4-64, a red-shifted variant of FM1-43, was used as an index of membrane repair capacity in mg53−/− myotubes transfected with GFP-MG53 and GFP-C242A. Following UV-bleaching of the green fluorescence, rapid translocation of GFP-MG53 took place at the injury site, whereas GFP-C242A remained static due to its defective oligomerization properties (FIG. 16E, 17A).
Similar defects with GFP-C29L were also observed in C2C12 myotubes (FIG. 18e, middle).

B1: WT: wild type MG53 as GFP fusion protein expressed in cells (protein)
chain: MSAAPGLLRQELSCPLCLQLFDAPVTAECGHSFCRACLIRVAGEPAADGTVACPCCQAPTRPQALSTNLQLSRLVEGLAQVPQGHCEEHLDPLSIYCEQDRTLVCGVCASLGSHRGHRLLPAAEAQARLKTQLPQQKMQLQEACMRKEKTVAVLEHQLVEVEETVRQFRGAVGEQLGKMRMFLAALESSLDREAERVRGDAGVALRRELSSLNSYLEQLRQMEKVLEEVADKPQTEFLMKFCLVTSRLQKILSESPPPARLDIQLPVISDDFKFQVWKKMFRALMPALEELTFDPSSAHPSLVVSSSGRRVECSDQKAPPAGEDTRQFDKAVAVVAQQLLSQGEHYWEVEVGDKPRWALGVMAADASRRGRLHAVPSQGLWLLGLRDGKILEAHVEAKEPRALRTPERPPARIGLYLSFADGVLAFYDASNPDVLTPIFSFHERLPGPVYPIFDVCWHDKGKNAQPLLLVGPEQEQA
modifications: left off: large carriers
notes: wild type MG53 as GFP fusion protein expressed in cells
translocation after cell membrane damage [1]: translocation of MG53 to the plasma membrane | translocation after cell membrane damage [2]: translocation of MG53 to the plasma membrane | translocation after cell membrane damage [3]: translocation of MG53 to the plasma membrane | translocation after cell membrane damage (Mouse primary astrocytes): translocation of MG53 to the plasma membrane | translocation after membrane damage [4]: effectively translocates to the plasma membrane | translocation to injury site and membrane repair function of GFP fusion protein [5]: rapid accumulation | translocation after membrane damage [6]: effectively translocates to the plasma membrane | translocation to the plasma membrane following injury (mg53−/− myotubes; primary cultured mg53−/− myotubes): could translocate to the plasma membrane following injury | entry of FM4-64 (membrane repair capacity) (mg53−/− myotubes; transfected mg53−/− myotubes, UV injury): Significantly less entry of FM4-64
